How the values were obtained:
Assay in all cases: ProtoArray methylated with G9a SET domain
[1] = molecular target: SMYD3, G9a-methylated (human) (UniProt Q9H7B4)
[2] = molecular target: CTSZ, G9a-methylated (human) (UniProt Q9UBR2)
[3] = molecular target: HPCAL4, G9a-methylated (human) (UniProt Q9UM19)
[4] = molecular target: CUTC, G9a-methylated (human) (UniProt Q9NTM9)
[5] = molecular target: CA13, G9a-methylated (human) (UniProt Q8N1Q1)
[6] = molecular target: CDK10, G9a-methylated (human) (UniProt Q15131)
[7] = molecular target: HIC2, G9a-methylated (human) (UniProt Q96JB3)
[8] = molecular target: CSF3, G9a-methylated (human) (UniProt P09919)
[9] = molecular target: TEAD4, G9a-methylated (human) (UniProt Q15561)
[10] = molecular target: SEC22B, G9a-methylated (human) (UniProt O75396)
Sequence of SEC22B, G9a-methylated (human) (O75396 whole entry): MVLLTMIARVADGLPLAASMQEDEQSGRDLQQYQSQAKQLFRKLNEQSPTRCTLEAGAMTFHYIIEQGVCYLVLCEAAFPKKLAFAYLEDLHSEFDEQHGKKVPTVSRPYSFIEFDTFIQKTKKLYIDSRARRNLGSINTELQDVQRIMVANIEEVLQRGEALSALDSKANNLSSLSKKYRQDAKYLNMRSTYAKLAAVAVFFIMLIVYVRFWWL

[11] = molecular target: VPS29, G9a-methylated (human) (UniProt Q9UBQ0)
[12] = molecular target: CMTM3, G9a-methylated (human) (UniProt Q96MX0)
Sequence of CMTM3, G9a-methylated (human) (Q96MX0 whole entry): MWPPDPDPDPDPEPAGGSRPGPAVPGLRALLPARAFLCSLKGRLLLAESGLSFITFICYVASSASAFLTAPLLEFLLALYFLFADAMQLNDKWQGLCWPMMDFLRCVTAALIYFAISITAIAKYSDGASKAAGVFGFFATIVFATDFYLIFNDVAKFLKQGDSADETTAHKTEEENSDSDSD

[13] = molecular target: SCGB2A2, G9a-methylated (human) (UniProt Q13296)
Sequence of SCGB2A2, G9a-methylated (human) (Q13296 19-93 limits assumed): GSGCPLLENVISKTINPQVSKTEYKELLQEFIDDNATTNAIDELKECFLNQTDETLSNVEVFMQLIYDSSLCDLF

[14] = molecular target: ZRANB1, G9a-methylated (human) (UniProt Q9UGI0)
[15] = molecular target: FTH1 (hit 109), G9a-methylated (human) (UniProt P02794)
[16] = molecular target: SERPINB2, G9a-methylated (human) (UniProt P05120)
[17] = molecular target: ZBP1, G9a-methylated (human) (UniProt Q9H171)
Sequence of ZBP1, G9a-methylated (human) (Q9H171 whole entry): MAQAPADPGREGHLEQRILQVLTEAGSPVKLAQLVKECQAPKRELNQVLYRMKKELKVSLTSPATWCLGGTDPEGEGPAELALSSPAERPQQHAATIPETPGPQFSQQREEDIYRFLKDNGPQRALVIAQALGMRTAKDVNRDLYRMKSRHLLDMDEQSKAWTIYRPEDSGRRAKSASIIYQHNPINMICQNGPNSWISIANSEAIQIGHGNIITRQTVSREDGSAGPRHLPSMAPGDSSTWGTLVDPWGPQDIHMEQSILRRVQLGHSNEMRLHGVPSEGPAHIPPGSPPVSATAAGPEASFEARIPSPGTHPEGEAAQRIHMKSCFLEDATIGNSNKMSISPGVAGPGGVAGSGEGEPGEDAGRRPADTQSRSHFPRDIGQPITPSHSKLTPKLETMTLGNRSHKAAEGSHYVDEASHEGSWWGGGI

[18] = molecular target: GPX5, G9a-methylated (human) (UniProt O75715)
[19] = molecular target: TTC27, G9a-methylated (human) (UniProt Q6P3X3)
[20] = molecular target: STK17B, G9a-methylated (human) (UniProt O94768)
Sequence of STK17B, G9a-methylated (human) (O94768 whole entry): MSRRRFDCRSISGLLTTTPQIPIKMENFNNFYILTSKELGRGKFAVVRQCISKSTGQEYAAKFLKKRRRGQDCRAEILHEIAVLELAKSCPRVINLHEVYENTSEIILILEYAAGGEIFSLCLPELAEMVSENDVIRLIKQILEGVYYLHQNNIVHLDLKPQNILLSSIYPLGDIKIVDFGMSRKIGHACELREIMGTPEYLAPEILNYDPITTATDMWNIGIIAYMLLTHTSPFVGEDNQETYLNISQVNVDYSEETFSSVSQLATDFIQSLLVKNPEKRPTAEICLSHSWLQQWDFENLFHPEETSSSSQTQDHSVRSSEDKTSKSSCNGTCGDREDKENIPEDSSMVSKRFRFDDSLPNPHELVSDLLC

[21] = molecular target: FTL, G9a-methylated (human) (UniProt P02792)
[22] = molecular target: LYPLAL1, G9a-methylated (human) (UniProt Q5VWZ2)
Sequence of LYPLAL1, G9a-methylated (human) (Q5VWZ2 whole entry): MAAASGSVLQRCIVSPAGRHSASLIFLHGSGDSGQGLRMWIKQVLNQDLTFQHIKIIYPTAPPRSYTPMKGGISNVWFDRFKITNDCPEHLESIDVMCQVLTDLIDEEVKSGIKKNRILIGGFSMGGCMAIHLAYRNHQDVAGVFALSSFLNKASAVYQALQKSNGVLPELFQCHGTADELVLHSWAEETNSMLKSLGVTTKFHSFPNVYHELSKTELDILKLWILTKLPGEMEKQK

[23] = molecular target: GYPC, G9a-methylated (human) (UniProt P04921)
Sequence of GYPC, G9a-methylated (human) (P04921 other isoform, or with tags, fused parts or gaps limits assumed): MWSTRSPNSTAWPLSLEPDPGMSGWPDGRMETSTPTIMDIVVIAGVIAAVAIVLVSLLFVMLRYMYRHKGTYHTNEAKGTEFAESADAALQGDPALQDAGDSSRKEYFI

[24] = molecular target: KRR1, G9a-methylated (human) (UniProt Q13601)
Sequence of KRR1, G9a-methylated (human) (Q13601 whole entry): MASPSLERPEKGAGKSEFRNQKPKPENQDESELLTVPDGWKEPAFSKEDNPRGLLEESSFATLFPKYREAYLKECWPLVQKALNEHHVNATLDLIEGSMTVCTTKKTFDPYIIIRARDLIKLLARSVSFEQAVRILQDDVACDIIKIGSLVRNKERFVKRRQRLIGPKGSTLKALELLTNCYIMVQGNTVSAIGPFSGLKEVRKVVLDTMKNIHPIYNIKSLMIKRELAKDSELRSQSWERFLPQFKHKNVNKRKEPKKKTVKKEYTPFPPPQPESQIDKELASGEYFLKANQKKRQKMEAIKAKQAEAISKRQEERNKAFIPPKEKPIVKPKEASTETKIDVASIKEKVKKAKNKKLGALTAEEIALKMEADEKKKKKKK

[25] = molecular target: GHRL, G9a-methylated (human) (UniProt Q9UBU3)
[26] = molecular target: RASSF4, G9a-methylated (human) (UniProt Q9H2L5)
Sequence of RASSF4, G9a-methylated (human) (Q9H2L5 whole entry): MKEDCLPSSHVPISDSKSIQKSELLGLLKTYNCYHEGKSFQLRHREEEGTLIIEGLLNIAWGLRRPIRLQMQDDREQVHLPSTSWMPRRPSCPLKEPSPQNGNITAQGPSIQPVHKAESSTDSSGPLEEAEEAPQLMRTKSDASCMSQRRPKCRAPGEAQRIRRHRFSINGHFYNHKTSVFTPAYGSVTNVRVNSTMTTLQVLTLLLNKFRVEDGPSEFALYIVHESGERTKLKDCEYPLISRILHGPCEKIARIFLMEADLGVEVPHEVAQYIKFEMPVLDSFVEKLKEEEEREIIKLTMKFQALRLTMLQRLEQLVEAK

[27] = molecular target: HS3ST1, G9a-methylated (human) (UniProt O14792)
[28] = molecular target: CNTD1, G9a-methylated (human) (UniProt Q8N815)
[29] = molecular target: DNTT, G9a-methylated (human) (UniProt P04053)
[30] = molecular target: SAR1B, G9a-methylated (human) (UniProt Q9Y6B6)
[31] = molecular target: DGKA, G9a-methylated (human) (UniProt P23743)
Sequence of DGKA, G9a-methylated (human) (P23743 whole entry): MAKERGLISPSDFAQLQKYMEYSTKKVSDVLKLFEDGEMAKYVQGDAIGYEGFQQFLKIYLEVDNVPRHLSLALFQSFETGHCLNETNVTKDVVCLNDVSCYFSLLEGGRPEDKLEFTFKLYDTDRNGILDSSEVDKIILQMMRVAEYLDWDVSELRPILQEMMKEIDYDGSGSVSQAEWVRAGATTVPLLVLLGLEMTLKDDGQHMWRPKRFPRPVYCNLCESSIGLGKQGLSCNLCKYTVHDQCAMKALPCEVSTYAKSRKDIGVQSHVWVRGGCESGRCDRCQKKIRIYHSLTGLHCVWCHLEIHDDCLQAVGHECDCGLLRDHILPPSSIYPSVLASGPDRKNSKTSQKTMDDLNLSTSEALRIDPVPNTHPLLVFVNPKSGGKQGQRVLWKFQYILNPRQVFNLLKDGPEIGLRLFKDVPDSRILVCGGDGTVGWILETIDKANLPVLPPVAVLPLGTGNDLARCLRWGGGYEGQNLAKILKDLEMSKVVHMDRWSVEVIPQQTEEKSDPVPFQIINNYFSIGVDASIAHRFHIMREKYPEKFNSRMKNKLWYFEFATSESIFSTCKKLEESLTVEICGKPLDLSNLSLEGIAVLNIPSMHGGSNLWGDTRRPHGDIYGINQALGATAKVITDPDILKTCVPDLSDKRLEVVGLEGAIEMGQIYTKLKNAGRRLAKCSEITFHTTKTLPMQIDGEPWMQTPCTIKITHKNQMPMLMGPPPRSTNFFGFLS

[32] = molecular target: LPAL2, G9a-methylated (human) (UniProt Q16609)
Sequence of LPAL2, G9a-methylated (human) (Q16609 22-132 limits assumed): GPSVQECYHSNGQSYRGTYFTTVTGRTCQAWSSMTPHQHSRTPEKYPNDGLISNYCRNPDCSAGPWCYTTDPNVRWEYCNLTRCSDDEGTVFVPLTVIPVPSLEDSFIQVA

[33] = molecular target: LYRM7, G9a-methylated (human) (UniProt Q5U5X0)
[34] = molecular target: MAGEH1, G9a-methylated (human) (UniProt Q9H213)
[35] = molecular target: MRPL21, G9a-methylated (human) (UniProt Q7Z2W9)
[36] = molecular target: CDC2, G9a-methylated (human) (UniProt P06493)
Sequence of CDC2, G9a-methylated (human) (P06493 whole entry): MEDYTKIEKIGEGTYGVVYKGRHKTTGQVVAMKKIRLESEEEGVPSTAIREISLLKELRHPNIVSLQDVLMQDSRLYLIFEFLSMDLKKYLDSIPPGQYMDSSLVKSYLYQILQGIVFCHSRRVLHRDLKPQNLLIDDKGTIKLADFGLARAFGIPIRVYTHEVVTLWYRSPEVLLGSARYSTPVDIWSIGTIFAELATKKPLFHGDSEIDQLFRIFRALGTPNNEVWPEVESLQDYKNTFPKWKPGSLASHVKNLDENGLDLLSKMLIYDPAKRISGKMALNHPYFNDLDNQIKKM

[37] = molecular target: TMEM32, G9a-methylated (human) (UniProt Q8N4V1)
Sequence of TMEM32, G9a-methylated (human) (Q8N4V1 whole entry): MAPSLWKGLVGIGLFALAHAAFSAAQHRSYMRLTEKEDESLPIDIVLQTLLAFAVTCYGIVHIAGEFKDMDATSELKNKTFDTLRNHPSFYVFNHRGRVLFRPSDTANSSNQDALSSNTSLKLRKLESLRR

[38] = molecular target: PSMA8, G9a-methylated (human) (UniProt Q8TAA3)
[39] = molecular target: CALN1, G9a-methylated (human) (UniProt Q9BXU9)
[40] = molecular target: WDR45, G9a-methylated (human) (UniProt Q9Y484)
[41] = molecular target: KIFC1, G9a-methylated (human) (UniProt Q9BW19)
Sequence of KIFC1, G9a-methylated (human) (Q9BW19 whole entry): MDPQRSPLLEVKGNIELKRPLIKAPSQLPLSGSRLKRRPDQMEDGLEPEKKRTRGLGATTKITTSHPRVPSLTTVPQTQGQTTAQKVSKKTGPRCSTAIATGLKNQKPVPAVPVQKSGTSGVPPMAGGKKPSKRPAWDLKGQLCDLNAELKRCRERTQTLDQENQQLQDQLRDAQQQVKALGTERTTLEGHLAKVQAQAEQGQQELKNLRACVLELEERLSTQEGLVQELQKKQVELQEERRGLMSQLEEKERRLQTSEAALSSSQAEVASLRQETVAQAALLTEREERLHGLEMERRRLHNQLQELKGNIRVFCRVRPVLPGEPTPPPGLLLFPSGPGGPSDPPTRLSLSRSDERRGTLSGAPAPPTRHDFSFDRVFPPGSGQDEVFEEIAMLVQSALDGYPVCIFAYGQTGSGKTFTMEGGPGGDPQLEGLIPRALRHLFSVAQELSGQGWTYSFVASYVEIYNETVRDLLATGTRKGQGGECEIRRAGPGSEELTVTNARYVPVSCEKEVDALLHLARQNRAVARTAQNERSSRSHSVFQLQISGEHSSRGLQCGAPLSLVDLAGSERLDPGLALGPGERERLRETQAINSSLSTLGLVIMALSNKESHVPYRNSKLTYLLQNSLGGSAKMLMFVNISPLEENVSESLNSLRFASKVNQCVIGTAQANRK

[42] = molecular target: SNFT, G9a-methylated (human) (UniProt Q9NR55)
[43] = molecular target: BLCAP, G9a-methylated (human) (UniProt P62952)
[44] = molecular target: CLDN15, G9a-methylated (human) (UniProt P56746)
[45] = molecular target: GPX1, G9a-methylated (human) (UniProt P07203)

Sequence of HPCAL4, G9a-methylated (human) (Q9UM19 whole entry): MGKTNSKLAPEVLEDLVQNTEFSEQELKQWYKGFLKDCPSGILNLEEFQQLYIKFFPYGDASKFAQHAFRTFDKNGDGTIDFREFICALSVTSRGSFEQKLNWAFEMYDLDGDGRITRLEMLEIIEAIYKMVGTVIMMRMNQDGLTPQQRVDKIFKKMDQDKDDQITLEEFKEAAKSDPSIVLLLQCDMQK
Sequence of CTSZ, G9a-methylated (human) (Q9UBR2 24-303 limits assumed): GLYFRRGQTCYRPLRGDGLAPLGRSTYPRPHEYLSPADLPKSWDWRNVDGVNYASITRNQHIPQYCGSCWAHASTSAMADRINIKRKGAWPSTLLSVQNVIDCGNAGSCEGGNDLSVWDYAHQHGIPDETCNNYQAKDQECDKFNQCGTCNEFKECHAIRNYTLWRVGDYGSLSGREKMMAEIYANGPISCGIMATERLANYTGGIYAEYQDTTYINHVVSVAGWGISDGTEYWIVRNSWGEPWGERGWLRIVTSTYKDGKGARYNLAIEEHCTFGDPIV

G9a Average SNR [1]: 17.6
G9a Average SNR [2]: 13.6
G9a Average SNR [3]: 11.5
G9a Average SNR [4]: 13.6
G9a Average SNR [5]: 13
G9a Average SNR [6]: 13.6
G9a Average SNR [7]: 16.7
G9a Average SNR [8]: 19
G9a Average SNR [9]: 16.9
G9a Average SNR [10]: 12.6
G9a Average SNR [11]: 16.6
G9a Average SNR [12]: 14.1
G9a Average SNR [13]: 14.8
G9a Average SNR [14]: 13.2
G9a Average SNR [15]: 38.7
G9a Average SNR [16]: 17.9
G9a Average SNR [17]: 14.7
G9a Average SNR [18]: 25.5
G9a Average SNR [19]: 20.7
G9a Average SNR [20]: 14.4
G9a Average SNR [21]: 34.2
G9a Average SNR [22]: 15.7
G9a Average SNR [23]: 13.4
G9a Average SNR [24]: 29.8
G9a Average SNR [25]: 24.5
G9a Average SNR [26]: 15.7
G9a Average SNR [27]: 13.3
G9a Average SNR [28]: 12.7
G9a Average SNR [29]: 49.9
G9a Average SNR [30]: 19.8
G9a Average SNR [31]: 15.5
G9a Average SNR [32]: 33.3
G9a Average SNR [33]: 17.2
G9a Average SNR [34]: 44
G9a Average SNR [35]: 23.3
G9a Average SNR [36]: 25.3
G9a Average SNR [37]: 13.6
G9a Average SNR [38]: 13.1
G9a Average SNR [39]: 18.6
G9a Average SNR [40]: 16.6
G9a Average SNR [41]: 63.2
G9a Average SNR [42]: 18.1
G9a Average SNR [43]: 26.4
G9a Average SNR [44]: 25
G9a Average SNR [45]: 15.8
Substance: 3× Flag-3×MBT (designed binder)
